Assay results published in patent publication US8586570.

PKCθ, sequence (Q04759 whole entry): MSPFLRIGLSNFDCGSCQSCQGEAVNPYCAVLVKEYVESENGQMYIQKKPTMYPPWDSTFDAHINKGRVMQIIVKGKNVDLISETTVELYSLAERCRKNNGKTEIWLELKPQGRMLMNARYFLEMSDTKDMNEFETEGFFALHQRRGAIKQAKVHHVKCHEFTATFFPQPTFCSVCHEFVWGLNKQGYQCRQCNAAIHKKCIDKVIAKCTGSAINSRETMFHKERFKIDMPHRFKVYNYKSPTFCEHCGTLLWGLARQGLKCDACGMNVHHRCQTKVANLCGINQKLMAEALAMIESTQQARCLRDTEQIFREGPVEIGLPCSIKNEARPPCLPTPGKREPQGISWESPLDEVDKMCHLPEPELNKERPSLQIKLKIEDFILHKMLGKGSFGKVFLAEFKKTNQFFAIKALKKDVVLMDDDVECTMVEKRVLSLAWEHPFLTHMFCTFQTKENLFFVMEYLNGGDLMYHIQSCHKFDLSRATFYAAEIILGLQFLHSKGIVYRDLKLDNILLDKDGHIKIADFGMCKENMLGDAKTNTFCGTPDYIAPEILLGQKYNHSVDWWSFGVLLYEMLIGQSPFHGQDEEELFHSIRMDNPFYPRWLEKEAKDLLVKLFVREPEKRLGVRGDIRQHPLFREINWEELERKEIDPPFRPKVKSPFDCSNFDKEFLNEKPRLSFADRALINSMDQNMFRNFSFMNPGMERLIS

## PKCα
PKCα-S9
  KM: 0.093 µM
  Vmax (µmol min^-1 mg^-1) (µmol min^-1 mg^-1): 1.8
  Vmax/KM: 160000 min⁻¹ mg⁻¹
PKCα-S10
  KM: 0.12 µM
  Vmax (µmol min^-1 mg^-1) (µmol min^-1 mg^-1): 2.2
  Vmax/KM: 149000 min⁻¹ mg⁻¹
PKCα-S1
  KM: 8.6 µM
  Vmax (µmol min^-1 mg^-1) (µmol min^-1 mg^-1): 5.9
  Vmax/KM: 6200 min⁻¹ mg⁻¹

## PKCβI
PKCα-S10
  phosphorylation activity (1 µM peptide, 2 ng kinase): PKCβI and PKCθ are slightly more active than PKCα

## PKCβII
PKCα-S10
  phosphorylation activity (1 µM peptide, 2 ng kinase): PKCβII and PKCγ have comparable activities to that of PKCα

## PKCγ
PKCα-S10
  phosphorylation activity (1 µM peptide, 2 ng kinase): PKCβII and PKCγ have comparable activities to that of PKCα

## PKCδ
PKCα-S10
  phosphorylation activity (1 µM peptide, 2 ng kinase): no activity is observed with PKCδ, PKCµ, and PKCν

## PKCε
PKCα-S10
  phosphorylation activity (1 µM peptide, 2 ng kinase): very little activity is detected with PKCε, PKCζ, PKCη and PKCι

## PKCη
PKCα-S10
  phosphorylation activity (1 µM peptide, 2 ng kinase): very little activity is detected with PKCε, PKCζ, PKCη and PKCι

## PKCθ
PKCα-S10
  phosphorylation activity (1 µM peptide, 2 ng kinase): PKCβI and PKCθ are slightly more active than PKCα
